Patent US20170246372A1

Molecular target: ADAMTS-5 (UniProt Q9UNA0)
Assay: cell-based or functional assay

Sequence of UniProt Q9UNA0 (Q9UNA0 262-622 limits assumed): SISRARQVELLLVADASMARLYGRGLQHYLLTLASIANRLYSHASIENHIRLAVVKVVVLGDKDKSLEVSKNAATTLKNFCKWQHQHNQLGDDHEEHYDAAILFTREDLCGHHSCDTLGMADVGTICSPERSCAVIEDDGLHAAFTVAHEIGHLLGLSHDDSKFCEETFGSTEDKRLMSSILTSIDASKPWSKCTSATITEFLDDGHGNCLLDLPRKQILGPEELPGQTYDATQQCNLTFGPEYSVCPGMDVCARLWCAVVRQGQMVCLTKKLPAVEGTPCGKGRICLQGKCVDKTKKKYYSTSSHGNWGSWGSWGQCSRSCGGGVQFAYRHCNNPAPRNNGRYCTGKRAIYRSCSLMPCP

purified A2M (alpha-2-macroglobulin) (from UniProt P01023 24-1474)
IC50 for inhibiting 500 ng/ml of ADAMTS-5 (bovine cartilage explants, 2 days, 3-fold serial dilution of A2M): 7 µg/mL | Maximum inhibition (bovine cartilage explants treated with protease, 2 days): 90%
